Source: paper PMC9482650, “Quantitative fragmentomics allow affinity mapping of interactomes” (Nature Communications, 2022)

Legend:
Assay in all cases: holdup assay
Set-up in all cases: key: below the threshold = too weak to quantify, mostly under pKd 3.1 to 4
[1] = target: T1, APBA1_1, Q02410
T1 sequence (Q02410 651-752, limits assumed, looked up): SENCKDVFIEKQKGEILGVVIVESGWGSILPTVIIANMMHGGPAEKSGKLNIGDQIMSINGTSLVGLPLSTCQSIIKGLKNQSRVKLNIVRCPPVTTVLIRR

[2] = target: T2, ARHGEF11, O15085
T2 sequence (O15085 42-136, limits assumed, looked up): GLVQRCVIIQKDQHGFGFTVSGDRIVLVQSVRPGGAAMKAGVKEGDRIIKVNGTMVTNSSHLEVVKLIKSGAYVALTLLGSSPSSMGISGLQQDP

[3] = target: ARHGEF12, Q9NZN5-2
Chain of ARHGEF12, Q9NZN5-2 (Q9NZN5 other isoform, or with tags, fused parts or gaps): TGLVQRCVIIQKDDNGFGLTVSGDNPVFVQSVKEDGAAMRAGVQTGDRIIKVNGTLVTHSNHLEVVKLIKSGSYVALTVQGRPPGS

[4] = target: DLG5_1, Q8TDM6
Chain of DLG5_1, Q8TDM6 (Q8TDM6 617-713): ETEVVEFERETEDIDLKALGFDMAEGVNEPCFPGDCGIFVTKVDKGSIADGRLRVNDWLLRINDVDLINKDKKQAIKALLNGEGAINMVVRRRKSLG

[5] = target: FRMPD3, Q5JV73
Chain of FRMPD3, Q5JV73 (Q5JV73 12-100): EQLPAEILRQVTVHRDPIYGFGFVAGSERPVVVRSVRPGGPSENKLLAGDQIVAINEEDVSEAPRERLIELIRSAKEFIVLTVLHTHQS

[6] = target: GRID2IP_2, A4D2P6
Chain of GRID2IP_2, A4D2P6 (A4D2P6 272-370): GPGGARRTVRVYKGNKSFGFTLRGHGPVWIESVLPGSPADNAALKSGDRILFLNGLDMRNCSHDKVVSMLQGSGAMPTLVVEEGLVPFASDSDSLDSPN

[7] = target: T3, GRIP1_2, Q9Y3R0
T3 sequence (Q9Y3R0 145-248, limits assumed, looked up): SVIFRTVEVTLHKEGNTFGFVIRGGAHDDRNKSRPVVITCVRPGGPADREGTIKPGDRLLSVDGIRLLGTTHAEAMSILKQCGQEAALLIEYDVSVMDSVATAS

[8] = target: HTRA1, Q92743
Chain of HTRA1, Q92743 (Q92743 360-477): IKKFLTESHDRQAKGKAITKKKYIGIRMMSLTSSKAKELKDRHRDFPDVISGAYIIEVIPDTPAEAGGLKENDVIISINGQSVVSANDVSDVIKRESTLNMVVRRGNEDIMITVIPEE

[9] = target: IL16_1, Q14005
Chain of IL16_1, Q14005 (Q14005 210-306): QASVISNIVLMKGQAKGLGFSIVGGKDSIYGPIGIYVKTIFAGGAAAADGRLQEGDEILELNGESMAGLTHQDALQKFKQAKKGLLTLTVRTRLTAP

[10] = target: IL16_3, Q14005
Chain of IL16_3, Q14005 (Q14005 1107-1207): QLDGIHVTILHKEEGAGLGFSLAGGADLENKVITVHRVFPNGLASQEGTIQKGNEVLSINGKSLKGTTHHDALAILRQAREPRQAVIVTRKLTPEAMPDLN

[11] = target: Inadl_3, Q8NI35
Chain of Inadl_3, Q8NI35 (Q8NI35 359-469): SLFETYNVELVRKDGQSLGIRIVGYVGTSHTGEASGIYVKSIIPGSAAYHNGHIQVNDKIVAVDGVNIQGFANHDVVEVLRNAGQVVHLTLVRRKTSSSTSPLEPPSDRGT

[12] = target: Inadl_5, Q8NI35
Chain of Inadl_5, Q8NI35 (Q8NI35 673-780): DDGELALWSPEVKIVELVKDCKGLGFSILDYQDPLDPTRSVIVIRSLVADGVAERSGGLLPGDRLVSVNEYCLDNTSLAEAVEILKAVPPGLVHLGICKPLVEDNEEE

[13] = target: LNX1_2, Q8TBB1
Chain of LNX1_2, Q8TBB1 (Q8TBB1 371-470): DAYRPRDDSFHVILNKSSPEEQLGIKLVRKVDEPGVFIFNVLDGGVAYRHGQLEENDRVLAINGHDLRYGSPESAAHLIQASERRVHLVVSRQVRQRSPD

[14] = target: MAGI2_2, Q86UL8
Chain of MAGI2_2, Q86UL8 (Q86UL8 410-522): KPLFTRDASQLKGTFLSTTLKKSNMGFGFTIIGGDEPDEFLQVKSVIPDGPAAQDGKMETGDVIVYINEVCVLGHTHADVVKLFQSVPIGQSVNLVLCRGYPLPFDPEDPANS

[15] = target: MAGI3_2, Q5TCQ9
Chain of MAGI3_2, Q5TCQ9 (Q5TCQ9 398-503): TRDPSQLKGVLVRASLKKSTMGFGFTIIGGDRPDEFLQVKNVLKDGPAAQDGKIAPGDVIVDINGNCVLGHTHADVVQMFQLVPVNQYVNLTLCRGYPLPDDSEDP

[16] = target: MAST1, Q9Y2H9
Chain of MAST1, Q9Y2H9 (Q9Y2H9 962-1065): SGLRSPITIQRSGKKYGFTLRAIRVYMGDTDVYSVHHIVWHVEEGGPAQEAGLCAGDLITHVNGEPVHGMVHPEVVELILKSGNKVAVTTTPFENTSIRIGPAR

[17] = target: T4, MPP7, Q5T2T1
T4 sequence (Q5T2T1 134-230, limits assumed, looked up): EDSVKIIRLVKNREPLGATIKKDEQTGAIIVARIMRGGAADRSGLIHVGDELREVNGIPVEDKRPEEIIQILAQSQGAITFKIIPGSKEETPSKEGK

[18] = target: T5, NHERF3_3, Q5T2W1
T5 sequence (Q5T2W1 238-333, limits assumed, looked up): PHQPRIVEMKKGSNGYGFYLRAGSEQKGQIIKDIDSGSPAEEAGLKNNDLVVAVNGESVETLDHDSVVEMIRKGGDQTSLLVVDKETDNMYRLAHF

[19] = target: PDLIM1, O00151
Chain of PDLIM1, O00151 (O00151 1-87): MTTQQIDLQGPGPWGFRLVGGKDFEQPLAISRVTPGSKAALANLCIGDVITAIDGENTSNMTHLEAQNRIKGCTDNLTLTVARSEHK

[20] = target: T6, PDZRN3_1, Q9UPQ7
T6 sequence (Q9UPQ7 244-349, limits assumed, looked up): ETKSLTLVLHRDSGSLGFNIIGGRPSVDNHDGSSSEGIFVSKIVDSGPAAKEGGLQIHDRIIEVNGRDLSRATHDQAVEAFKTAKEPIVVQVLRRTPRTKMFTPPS

[21] = target: PTPN3, P26045
Chain of PTPN3, P26045 (P26045 505-587): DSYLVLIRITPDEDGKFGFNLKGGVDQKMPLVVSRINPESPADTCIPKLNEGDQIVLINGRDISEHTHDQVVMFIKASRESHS

[22] = target: T7, RADIL, Q96JH8
T7 sequence (Q96JH8 971-1071, limits assumed, looked up): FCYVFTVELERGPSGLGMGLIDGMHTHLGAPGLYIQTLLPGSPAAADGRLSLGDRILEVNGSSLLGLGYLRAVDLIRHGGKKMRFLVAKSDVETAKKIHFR

[23] = target: T8, RAPGEF6, Q8TEU7
T8 sequence (Q8TEU7 525-625, limits assumed, looked up): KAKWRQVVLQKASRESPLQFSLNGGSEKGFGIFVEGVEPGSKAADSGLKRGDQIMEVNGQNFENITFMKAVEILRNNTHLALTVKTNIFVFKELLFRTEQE

[24] = target: T9, RHPN1, Q8TCX5
T9 sequence (Q8TCX5 508-602, limits assumed, looked up): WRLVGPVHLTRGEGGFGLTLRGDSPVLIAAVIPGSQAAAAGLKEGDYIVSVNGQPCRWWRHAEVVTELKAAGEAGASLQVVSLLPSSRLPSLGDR

[25] = target: T10, SNTA1, Q13424
T10 sequence (Q13424 82-180, limits assumed, looked up): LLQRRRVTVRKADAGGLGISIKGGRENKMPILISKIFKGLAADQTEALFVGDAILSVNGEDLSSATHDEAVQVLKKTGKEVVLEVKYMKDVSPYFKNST

[26] = target: T11, SNTG2, Q9NY99
T11 sequence (Q9NY99 68-166, limits assumed, looked up): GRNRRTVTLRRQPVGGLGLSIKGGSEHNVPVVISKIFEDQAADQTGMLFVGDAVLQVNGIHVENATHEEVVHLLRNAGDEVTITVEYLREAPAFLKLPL

[27] = target: TJP1_3, Q07157
Chain of TJP1_3, Q07157 (Q07157 416-512): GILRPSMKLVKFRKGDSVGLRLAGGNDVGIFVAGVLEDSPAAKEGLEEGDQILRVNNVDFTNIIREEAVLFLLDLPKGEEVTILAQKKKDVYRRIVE

[28] = plain residues with an end cap or a label only (N-terminal biotin on a linker: ttds)
[29] = plain residues with an end cap or a label only (N-terminal biotin on a linker: ahx)
[30] = plain residues with an end cap or a label only (N-terminal biotin on a linker: ado-ado)

DPLTPSRSQL [DGKK, Q5KSL6]
pKd [1, 28]: below the threshold
pKd [2, 28]: below the threshold
pKd [3, 28]: 3.86
pKd [4, 28]: below the threshold
pKd [5, 28]: below the threshold
pKd [6, 28]: 4.1
pKd [7, 28]: below the threshold
pKd [8, 28]: below the threshold
pKd [9, 28]: below the threshold
pKd [10, 28]: below the threshold
pKd [11, 28]: below the threshold
pKd [12, 28]: below the threshold
pKd [13, 28]: below the threshold
pKd [14, 28]: below the threshold
pKd [15, 28]: 3.55
pKd [16, 28]: 4.16
pKd [17, 28]: below the threshold
pKd [18, 28]: below the threshold
pKd [19, 28]: below the threshold
pKd [20, 28]: below the threshold
pKd [21, 28]: below the threshold
pKd [22, 28]: below the threshold
pKd [23, 28]: below the threshold
pKd [24, 28]: below the threshold
pKd [25, 28]: below the threshold
pKd [26, 28]: 3.84
pKd [27, 28]: below the threshold

HSGSYLVTSV [APC, P25054]
pKd [1, 29]: below the threshold
pKd [2, 29]: 4.59
pKd [3, 29]: 5.02
pKd [4, 29]: below the threshold
pKd [5, 29]: below the threshold
pKd [6, 29]: 4.41
pKd [7, 29]: below the threshold
pKd [8, 29]: 4.2
pKd [9, 29]: 3.58
pKd [10, 29]: below the threshold
pKd [11, 29]: below the threshold
pKd [12, 29]: below the threshold
pKd [13, 29]: 3.79
pKd [14, 29]: 4.18
pKd [15, 29]: 4.53
pKd [16, 29]: 4.22
pKd [17, 29]: below the threshold
pKd [18, 29]: below the threshold
pKd [19, 29]: below the threshold
pKd [20, 29]: below the threshold
pKd [21, 29]: 4.64
pKd [22, 29]: 4.23
pKd [23, 29]: below the threshold
pKd [24, 29]: 5.16
pKd [25, 29]: 3.64
pKd [26, 29]: 3.59
pKd [27, 29]: below the threshold

RNCSTNDSLL [ADRB2, P07550]
pKd [1, 29]: 3.63
pKd [2, 29]: below the threshold
pKd [3, 29]: below the threshold
pKd [4, 29]: below the threshold
pKd [5, 29]: below the threshold
pKd [6, 29]: below the threshold
pKd [7, 29]: below the threshold
pKd [8, 29]: 3.62
pKd [9, 29]: below the threshold
pKd [10, 29]: below the threshold
pKd [11, 29]: 3.73
pKd [12, 29]: below the threshold
pKd [13, 29]: below the threshold
pKd [14, 29]: below the threshold
pKd [15, 29]: below the threshold
pKd [16, 29]: 3.74
pKd [17, 29]: below the threshold
pKd [18, 29]: below the threshold
pKd [19, 29]: 3.77
pKd [20, 29]: 3.54
pKd [21, 29]: 3.53
pKd [22, 29]: below the threshold
pKd [23, 29]: below the threshold
pKd [24, 29]: 3.94
pKd [25, 29]: below the threshold
pKd [26, 29]: below the threshold
pKd [27, 29]: below the threshold

QKNKDKEYYV [NRXN3_rs746444206, Q9Y4C0]
pKd [1, 30]: below the threshold
pKd [2, 30]: 3.95
pKd [3, 30]: below the threshold
pKd [4, 30]: below the threshold
pKd [5, 30]: 3.9
pKd [6, 30]: below the threshold
pKd [7, 30]: below the threshold
pKd [8, 30]: 5.32
pKd [9, 30]: below the threshold
pKd [10, 30]: below the threshold
pKd [11, 30]: 4
pKd [12, 30]: 4.55
pKd [13, 30]: 4
pKd [14, 30]: 4.02
pKd [15, 30]: 4.63
pKd [16, 30]: below the threshold
pKd [17, 30]: 4.79
pKd [18, 30]: below the threshold
pKd [19, 30]: below the threshold
pKd [20, 30]: below the threshold
pKd [21, 30]: 4.28
pKd [22, 30]: 4.51
pKd [23, 30]: below the threshold
pKd [24, 30]: below the threshold
pKd [25, 30]: 3.78
pKd [26, 30]: below the threshold
pKd [27, 30]: below the threshold

SSSNSEDTEM [NHERF3, Q5T2W1]
pKd [1, 29]: below the threshold
pKd [2, 29]: below the threshold
pKd [3, 29]: below the threshold
pKd [4, 29]: below the threshold
pKd [5, 29]: below the threshold
pKd [6, 29]: below the threshold
pKd [7, 29]: below the threshold
pKd [8, 29]: below the threshold
pKd [9, 29]: below the threshold
pKd [10, 29]: below the threshold
pKd [11, 29]: below the threshold
pKd [12, 29]: below the threshold
pKd [13, 29]: below the threshold
pKd [14, 29]: below the threshold
pKd [15, 29]: below the threshold
pKd [16, 29]: 3.94
pKd [17, 29]: below the threshold
pKd [18, 29]: below the threshold
pKd [19, 29]: below the threshold
pKd [20, 29]: below the threshold
pKd [21, 29]: 3.64
pKd [22, 29]: below the threshold
pKd [23, 29]: below the threshold
pKd [24, 29]: 3.98
pKd [25, 29]: below the threshold
pKd [26, 29]: below the threshold
pKd [27, 29]: below the threshold
